Source: the supplement of paper PMC9876800

Tested on: peptide library, one residue held at a place counted from the S/T acceptor
Assay: relative phosphorylation of the sub-library (ratio to the mean residue at this position); higher = residue favoured
Conditions: human
Procedure, shortened: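 Purified recombinant kinases, either human or orthologue constructs, were incubated in 384-well plates with biotinylated degenerate peptide sub-libraries. Each sub-library fixed one residue at one position around a central Ser/Thr. Peptides at 50 μM and 50 μM ATP spiked with γ-32P-ATP were used for 90 min under kinase-specific conditions, and spots on streptavidin membranes were phosphorimaged and quantified by densitometry. Relative sub-library phosphorylation is expressed as a ratio to the mean residue at that position.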

Sequence of MAK, construct: Full length (P20794 whole entry, looked up): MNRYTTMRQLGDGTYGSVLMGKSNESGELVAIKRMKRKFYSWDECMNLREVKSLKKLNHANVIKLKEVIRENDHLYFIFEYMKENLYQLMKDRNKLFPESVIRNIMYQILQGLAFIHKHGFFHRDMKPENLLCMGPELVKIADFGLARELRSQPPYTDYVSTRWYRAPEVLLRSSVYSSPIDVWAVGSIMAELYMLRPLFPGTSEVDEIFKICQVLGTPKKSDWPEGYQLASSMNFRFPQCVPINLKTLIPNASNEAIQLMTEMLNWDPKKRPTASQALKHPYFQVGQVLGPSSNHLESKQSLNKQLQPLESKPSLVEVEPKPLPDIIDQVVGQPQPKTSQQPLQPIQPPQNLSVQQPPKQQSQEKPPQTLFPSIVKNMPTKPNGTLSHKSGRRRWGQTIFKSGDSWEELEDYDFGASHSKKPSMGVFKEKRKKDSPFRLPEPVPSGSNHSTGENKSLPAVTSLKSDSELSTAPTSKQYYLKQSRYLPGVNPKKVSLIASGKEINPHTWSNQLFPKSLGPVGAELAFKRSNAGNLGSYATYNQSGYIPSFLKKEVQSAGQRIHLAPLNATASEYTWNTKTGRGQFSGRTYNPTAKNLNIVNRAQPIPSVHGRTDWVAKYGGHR
Sequence of MAP3K6, construct: aa620-950 (O95382 620-950, looked up): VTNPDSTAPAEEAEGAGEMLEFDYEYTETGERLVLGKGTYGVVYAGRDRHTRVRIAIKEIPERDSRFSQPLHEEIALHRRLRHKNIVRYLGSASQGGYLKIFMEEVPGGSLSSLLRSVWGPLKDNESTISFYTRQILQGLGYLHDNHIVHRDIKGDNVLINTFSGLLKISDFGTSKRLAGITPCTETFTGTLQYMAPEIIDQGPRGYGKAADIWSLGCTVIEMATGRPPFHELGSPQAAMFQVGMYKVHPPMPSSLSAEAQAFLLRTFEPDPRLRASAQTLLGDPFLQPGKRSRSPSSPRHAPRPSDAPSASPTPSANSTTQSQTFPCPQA
Sequence of GAK, construct: aa24-359 (O14976 24-359, looked up): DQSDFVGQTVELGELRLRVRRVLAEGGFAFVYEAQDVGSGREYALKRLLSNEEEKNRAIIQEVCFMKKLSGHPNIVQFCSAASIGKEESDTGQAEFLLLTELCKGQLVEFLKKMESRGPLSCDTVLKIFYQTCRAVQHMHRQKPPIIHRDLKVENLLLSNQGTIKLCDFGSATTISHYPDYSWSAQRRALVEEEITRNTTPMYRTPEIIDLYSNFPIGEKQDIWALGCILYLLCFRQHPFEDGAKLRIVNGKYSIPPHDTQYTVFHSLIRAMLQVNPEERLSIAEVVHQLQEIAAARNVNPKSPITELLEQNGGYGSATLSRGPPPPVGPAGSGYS
Sequence of GSK3A, construct: Full length (P49840 whole entry, looked up): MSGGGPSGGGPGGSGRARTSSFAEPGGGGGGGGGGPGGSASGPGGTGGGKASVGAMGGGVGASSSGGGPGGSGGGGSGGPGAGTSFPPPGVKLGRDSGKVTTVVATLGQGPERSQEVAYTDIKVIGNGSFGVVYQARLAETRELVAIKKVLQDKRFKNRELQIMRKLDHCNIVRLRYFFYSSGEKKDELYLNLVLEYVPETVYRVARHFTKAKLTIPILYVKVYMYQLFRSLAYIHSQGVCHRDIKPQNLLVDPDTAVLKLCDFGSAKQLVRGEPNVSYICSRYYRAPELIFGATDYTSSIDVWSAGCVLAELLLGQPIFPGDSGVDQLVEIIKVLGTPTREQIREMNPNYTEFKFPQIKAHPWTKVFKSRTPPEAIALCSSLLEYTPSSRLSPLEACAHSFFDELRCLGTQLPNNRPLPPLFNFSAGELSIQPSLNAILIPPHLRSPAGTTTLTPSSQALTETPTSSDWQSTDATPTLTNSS

GAK, construct: aa24-359 (from UniProt O14976)
relative phosphorylation
Conditions	at +1	at +2	at +3	at +4	at -1	at -2	at -3	at -4	at -5
A fixed	0.783	1.19	0.848	0.882	0.845	0.985	0.819	0.986	0.954
D fixed	0.647	0.954	0.997	0.884	0.75	0.753	0.898	1.14	1.08
E fixed	0.658	0.86	1.05	0.891	0.653	0.778	0.912	1.49	1.03
F fixed	0.643	0.918	0.862	1.02	0.904	0.801	0.709	0.856	0.879
G fixed	5.69	1.37	1.28	0.908	0.974	1.08	0.888	0.947	0.831
H fixed	0.829	1.13	1.19	0.96	1.13	1.13	1.11	1.11	1.1
I fixed	0.588	0.741	0.822	0.849	0.824	0.879	0.935	0.852	1.06
K fixed	0.766	1.08	1.21	1.21	2.28	1.1	1.43	1.12	1.09
L fixed	0.615	0.801	0.914	0.987	0.808	0.994	1.01	0.83	0.802
M fixed	0.649	0.792	0.825	0.896	0.813	1.06	1.07	0.875	0.853
N fixed	0.841	1.28	1.22	0.913	0.973	1.65	1.17	0.941	0.978
P fixed	0.729	0.736	0.801	0.834	1.23	0.687	0.751	0.69	0.696
Q fixed	0.696	1.1	1.05	1	0.965	1.22	1.16	1.04	0.853
R fixed	0.833	1.26	1.2	1.34	1.3	1.28	1.43	1.14	1.15
V fixed	0.59	0.902	0.974	0.882	0.914	0.86	0.901	0.959	1
W fixed	0.769	1.03	0.82	1.59	0.803	0.848	0.849	1.03	1.05
Y fixed	0.672	0.831	0.931	0.947	0.838	0.9	0.959	0.998	1.6
pThr fixed	0.904	1.95	1.38	1.44	1.22	1.63	1.69	1.55	1.23
pTyr fixed	0.674	0.963	0.94	0.772	0.884	1.09	1.27	1.23	1.27

GSK3A, construct: Full length (from UniProt P49840)
relative phosphorylation
Conditions	at +1	at +2	at +3	at +4	at -1	at -2	at -3	at -4	at -5
A fixed	0.877	0.899	0.742	0.852	1.1	1.42	1.14	1.28	1.14
D fixed	0.815	1.25	1.32	1.25	1.15	1.14	1.36	1.39	1.36
E fixed	0.758	0.904	2.08	3.03	1.09	0.906	1.26	1.4	1.05
F fixed	0.673	0.931	0.889	0.752	0.598	0.686	0.525	0.686	0.903
G fixed	1.19	0.957	1.02	0.825	1.47	1.38	2.61	1.43	0.995
H fixed	0.771	1.04	0.935	0.772	0.927	0.741	0.668	0.915	0.983
I fixed	0.564	0.621	0.679	0.788	0.506	0.719	0.507	0.661	0.727
K fixed	1.18	1.33	0.933	1.14	1.3	1.02	0.824	1.06	1.16
L fixed	0.552	0.772	0.803	0.862	0.61	0.638	0.536	0.715	0.811
M fixed	0.607	0.883	0.812	0.864	0.691	0.662	0.604	0.747	0.739
N fixed	1.05	1.38	1	0.922	1.28	1.25	1.21	1.13	0.974
P fixed	3.8	0.825	0.899	0.728	1.5	2.02	1.65	1.42	1.31
Q fixed	0.858	1.35	1.2	1.03	1.35	1	1.09	0.894	0.887
R fixed	1.15	1.03	1.01	0.82	1.31	1.26	1.21	0.951	1.01
V fixed	0.634	0.703	0.718	0.695	0.616	0.777	0.605	0.721	0.963
W fixed	0.793	1.15	1.07	0.766	0.724	0.728	0.592	0.828	1.1
Y fixed	0.725	0.979	0.873	0.908	0.77	0.653	0.614	0.772	0.882
pThr fixed	0.876	0.928	3.67	62.8	0.866	1.11	1.06	1.82	1.07
pTyr fixed	1.15	1.09	2.41	3.12	1.52	1.34	1.37	1.45	1.69

MAK, construct: Full length (from UniProt P20794)
relative phosphorylation
Conditions	at +1	at +2	at +3	at +4	at -1	at -2	at -3	at -4	at -5
A fixed	2.18	1.07	0.904	0.995	1.19	0.647	0.835	1.16	1.16
D fixed	0.175	1.06	0.653	0.701	0.423	0.165	0.276	0.752	0.824
E fixed	0.155	0.749	0.523	0.677	0.32	0.18	0.251	0.781	0.745
F fixed	0.321	0.762	0.858	0.704	0.498	0.159	0.201	0.633	0.864
G fixed	2.02	1.56	1.51	1.49	1.8	0.63	0.653	1.33	1.5
H fixed	0.308	1.09	1.32	1.19	0.982	0.251	0.428	0.856	0.994
I fixed	0.431	0.736	0.785	0.785	0.315	0.476	0.291	0.647	0.745
K fixed	0.324	1.01	1.37	1.21	1.92	0.779	0.872	1.06	0.989
L fixed	0.394	1.03	1.06	0.853	0.638	0.632	0.356	0.707	0.723
M fixed	0.445	0.979	0.901	0.878	1.07	0.406	0.309	0.803	0.855
N fixed	0.322	1.05	0.924	0.995	0.94	0.313	0.382	0.732	0.726
P fixed	7.71	0.986	1.21	1.36	1.51	8.65	2.32	1.8	1.9
Q fixed	0.393	0.939	0.904	0.898	1.13	0.394	0.513	0.898	1.03
R fixed	0.759	1.08	1.47	1.48	2.24	2.32	8.51	2.58	1.36
V fixed	0.455	0.907	0.978	0.877	0.63	0.631	0.302	0.81	0.821
W fixed	0.329	0.988	0.801	1.01	0.616	0.192	0.238	0.725	0.725
Y fixed	0.274	1	0.831	0.908	0.788	0.178	0.254	0.725	1.04
pThr fixed	0.401	0.534	0.748	0.735	0.265	0.377	0.408	0.851	0.905
pTyr fixed	0.326	0.839	0.706	0.678	0.338	0.212	0.365	0.759	0.912

MAP3K6, construct: aa620-950 (from UniProt O95382)
relative phosphorylation
Conditions	at +1	at +2	at +3	at +4	at -1	at -2	at -3	at -4	at -5
A fixed	1.34	0.898	1.23	0.902	1.33	1.5	1.24	1.03	1.15
D fixed	0.184	0.304	0.38	0.371	0.366	0.366	0.474	0.589	0.603
E fixed	0.255	0.23	0.335	0.36	0.391	0.365	0.561	0.641	0.712
F fixed	0.74	0.907	1.12	1.04	0.584	0.622	0.872	0.93	0.875
G fixed	0.715	0.78	1.05	1.12	1.91	1.18	1.15	1.09	1.15
H fixed	1.4	1.41	1.02	1.26	1.12	1.16	1.35	1.32	1.24
I fixed	1.26	0.568	0.606	1.07	0.588	0.879	0.736	0.725	0.613
K fixed	0.426	1.54	1.26	1.82	1.1	0.972	1.03	1.3	1.32
L fixed	1.36	0.912	1.2	0.797	0.805	0.922	0.913	0.76	0.86
M fixed	1.73	1.01	0.995	0.908	1.13	0.758	0.859	1.31	0.869
N fixed	0.754	0.839	0.793	0.822	0.94	1.41	1.02	0.958	1.03
P fixed	0.354	0.498	1.1	0.931	0.896	1.16	0.774	0.824	1.08
Q fixed	0.844	0.83	0.946	0.931	0.891	1.25	1.08	1.02	1.14
R fixed	0.594	2.05	1.57	1.66	1.72	1.37	1.55	1.18	1.43
V fixed	1.62	0.726	0.984	0.853	0.917	1.35	0.984	1.02	0.996
W fixed	1.38	1.19	1.1	0.955	0.951	0.748	1.25	1.12	1.05
Y fixed	2.05	2.31	1.3	1.19	1.36	0.979	1.17	1.19	0.881
pThr fixed	0.602	0.585	0.681	0.261	0.574	0.9	0.725	0.845	0.914
pTyr fixed	0.421	0.294	0.614	0.356	0.673	0.548	0.787	0.736	0.917
